Results published in patent US10941182 (Amgen, dated 2021).
Starred links: 1 amine or outer side, 2 acyl side, 3 side chain; linkers in the order of their positions; H or OH if unused. Non-standard residues stand in square brackets, D forms with d. Primed or numbered codes have the meaning given here. *: point of attachment. AC4Abu = α-carboxy-4-aminobutyric acid, O=C(C(CCN[*:1])C(=O)[*:3])[*:2]; Oic = O=C(O)[C@@H]1C[C@@H]2CCCC[C@@H]2N1; Phe(4-Cl) = N[C@@H](Cc1ccc(Cl)cc1)C(=O)O; γGlu = O=C(O)[C@H](CCC(=O)[*:2])N[*:1]; NMeR = CN[C@@H](CCCNC(=N)N)C(=O)O; Tridecanoyl = CCCCCCCCCCCCC(=O)*; hArg = N=C(N)NCCCC[C@H](N)C(=O)O; Cha = N[C@@H](CC1CCCCC1)C(=O)O; αMeL = CC(C)C[C@](C)(N)C(=O)O; αMeP = C[C@@]1(C(=O)O)CCCN1; β3hP = O=C(O)C[C@@H]1CCCN1; Nle = CCCC[C@H](N)C(=O)O; Pip′ = not defined here; AEEA = NCCOCCOCC(=O)O; Aib = CC(C)(N)C(=O)O; BLeu = β-leucine

T1: rat APJ receptor (rat, UniProt Q9JHG3 1-377)
T1 sequence (looked up): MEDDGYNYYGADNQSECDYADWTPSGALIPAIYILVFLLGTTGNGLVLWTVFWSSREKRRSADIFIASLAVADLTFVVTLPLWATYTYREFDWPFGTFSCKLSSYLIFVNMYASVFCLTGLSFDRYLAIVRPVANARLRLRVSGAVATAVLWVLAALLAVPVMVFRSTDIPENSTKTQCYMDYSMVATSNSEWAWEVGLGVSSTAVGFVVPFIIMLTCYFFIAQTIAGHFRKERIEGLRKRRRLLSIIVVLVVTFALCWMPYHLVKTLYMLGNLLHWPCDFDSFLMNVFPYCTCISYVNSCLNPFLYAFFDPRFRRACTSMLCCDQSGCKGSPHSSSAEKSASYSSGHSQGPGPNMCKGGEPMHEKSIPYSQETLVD

T2: human APJ receptor (human, UniProt P35414 1-380)
T2 sequence (looked up): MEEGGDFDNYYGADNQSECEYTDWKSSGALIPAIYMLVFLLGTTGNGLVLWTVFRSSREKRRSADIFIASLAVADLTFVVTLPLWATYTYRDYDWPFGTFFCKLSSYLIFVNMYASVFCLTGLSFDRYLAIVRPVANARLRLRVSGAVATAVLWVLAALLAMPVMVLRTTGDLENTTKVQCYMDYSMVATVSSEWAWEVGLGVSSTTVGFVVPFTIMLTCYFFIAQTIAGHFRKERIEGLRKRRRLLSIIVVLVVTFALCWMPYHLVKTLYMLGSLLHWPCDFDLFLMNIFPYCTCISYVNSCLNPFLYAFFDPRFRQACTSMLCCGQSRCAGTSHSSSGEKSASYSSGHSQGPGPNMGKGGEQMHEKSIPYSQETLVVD

B1: Apelin polypeptide SEQ ID NO: 475 (peptide)
peptide: Tridecanoyl-[γGlu][AEEA][AEEA]QEP[NMeR]LSHKGP[Nle]P[Phe(4-Cl)]-OH
SMILES: CCCCCCCCCCCCC(=O)N[C@@H](CCC(=O)NCCOCCOCC(=O)NCCOCCOCC(=O)N[C@@H](CCC(N)=O)C(=O)N[C@@H](CCC(=O)O)C(=O)N1CCC[C@H]1C(=O)N(C)[C@@H](CCCNC(=N)N)C(=O)N[C@@H](CC(C)C)C(=O)N[C@@H](CO)C(=O)N[C@@H](Cc1c[nH]cn1)C(=O)N[C@@H](CCCCN)C(=O)NCC(=O)N1CCC[C@H]1C(=O)N[C@@H](CCCC)C(=O)N1CCC[C@H]1C(=O)N[C@@H](Cc1ccc(Cl)cc1)C(=O)O)C(=O)O
B2: Apelin polypeptide SEQ ID NO: 520 (peptide)
peptide: Tridecanoyl-[γGlu][AEEA][AEEA]QP[NMeR][Cha]SHKG[Oic][Nle][Aib][Phe(4-Cl)]-OH
SMILES: CCCCCCCCCCCCC(=O)N[C@@H](CCC(=O)NCCOCCOCC(=O)NCCOCCOCC(=O)N[C@@H](CCC(N)=O)C(=O)N1CCC[C@H]1C(=O)N(C)[C@@H](CCCNC(=N)N)C(=O)N[C@@H](CC1CCCCC1)C(=O)N[C@@H](CO)C(=O)N[C@@H](Cc1c[nH]cn1)C(=O)N[C@@H](CCCCN)C(=O)NCC(=O)N1[C@H](C(=O)N[C@@H](CCCC)C(=O)NC(C)(C)C(=O)N[C@@H](Cc2ccc(Cl)cc2)C(=O)O)C[C@@H]2CCCC[C@@H]21)C(=O)O
B3: Apelin polypeptide SEQ ID NO: 504 (peptide)
peptide: XXXQRPRLSHKGPXPF
modifications: {TDA}[AC4Abu][Aeea][Aeea]qR[aMePro][hArg][BLeu]SHKG[aMePro][Nle][aMePro][4-Cl-F]{COOH}
B4: Apelin polypeptide SEQ ID NO: 503 (peptide)
peptide: XXXQRPRLSHKGXXPF
modifications: {TDA}[AC4Abu][Aeea][Aeea]qR[aMePro][hArg][BLeu]SHKG[Pip][Nle][aMePro][4-Cl-F]{COOH}
B5: Apelin polypeptide SEQ ID NO: 516 (peptide)
peptide: Tridecanoyl-[γGlu][AEEA][AEEA][dQ]R[β3hP][NMeR][Cha]SHKG[Oic][Nle][Aib][Phe(4-Cl)]-OH
SMILES: CCCCCCCCCCCCC(=O)N[C@@H](CCC(=O)NCCOCCOCC(=O)NCCOCCOCC(=O)N[C@H](CCC(N)=O)C(=O)N[C@@H](CCCNC(=N)N)C(=O)N1CCC[C@H]1CC(=O)N(C)[C@@H](CCCNC(=N)N)C(=O)N[C@@H](CC1CCCCC1)C(=O)N[C@@H](CO)C(=O)N[C@@H](Cc1c[nH]cn1)C(=O)N[C@@H](CCCCN)C(=O)NCC(=O)N1[C@H](C(=O)N[C@@H](CCCC)C(=O)NC(C)(C)C(=O)N[C@@H](Cc2ccc(Cl)cc2)C(=O)O)C[C@@H]2CCCC[C@@H]21)C(=O)O
B6: Apelin polypeptide SEQ ID NO: 446 (peptide)
peptide: Tridecanoyl-[γGlu][AEEA][AEEA]QR[NMeR][Cha]SHKG[Oic][Nle]P[Phe(4-Cl)]-OH
SMILES: CCCCCCCCCCCCC(=O)N[C@@H](CCC(=O)NCCOCCOCC(=O)NCCOCCOCC(=O)N[C@@H](CCC(N)=O)C(=O)N[C@@H](CCCNC(=N)N)C(=O)N(C)[C@@H](CCCNC(=N)N)C(=O)N[C@@H](CC1CCCCC1)C(=O)N[C@@H](CO)C(=O)N[C@@H](Cc1c[nH]cn1)C(=O)N[C@@H](CCCCN)C(=O)NCC(=O)N1[C@H](C(=O)N[C@@H](CCCC)C(=O)N2CCC[C@H]2C(=O)N[C@@H](Cc2ccc(Cl)cc2)C(=O)O)C[C@@H]2CCCC[C@@H]21)C(=O)O
B7: Apelin polypeptide SEQ ID NO: 553 (peptide)
peptide: Tridecanoyl-[γGlu][AEEA][AEEA][dQ]R[β3hP][NMeR][αMeL]SHKG[Oic][Nle][αMeP][Phe(4-Cl)]-OH
SMILES: CCCCCCCCCCCCC(=O)N[C@@H](CCC(=O)NCCOCCOCC(=O)NCCOCCOCC(=O)N[C@H](CCC(N)=O)C(=O)N[C@@H](CCCNC(=N)N)C(=O)N1CCC[C@H]1CC(=O)N(C)[C@@H](CCCNC(=N)N)C(=O)N[C@@](C)(CC(C)C)C(=O)N[C@@H](CO)C(=O)N[C@@H](Cc1c[nH]cn1)C(=O)N[C@@H](CCCCN)C(=O)NCC(=O)N1[C@H](C(=O)N[C@@H](CCCC)C(=O)N2CCC[C@@]2(C)C(=O)N[C@@H](Cc2ccc(Cl)cc2)C(=O)O)C[C@@H]2CCCC[C@@H]21)C(=O)O
B8: Apelin polypeptide SEQ ID NO: 396 (peptide)
peptide: Tridecanoyl-[AC4Abu][AEEA][AEEA]QR[NMeR][αMeL]SHKG[Oic][Nle]P[Phe(4-Cl)]-OH
SMILES: CCCCCCCCCCCCC(=O)NCCC(C(=O)O)C(=O)NCCOCCOCC(=O)NCCOCCOCC(=O)N[C@@H](CCC(N)=O)C(=O)N[C@@H](CCCNC(=N)N)C(=O)N(C)[C@@H](CCCNC(=N)N)C(=O)N[C@@](C)(CC(C)C)C(=O)N[C@@H](CO)C(=O)N[C@@H](Cc1c[nH]cn1)C(=O)N[C@@H](CCCCN)C(=O)NCC(=O)N1[C@H](C(=O)N[C@@H](CCCC)C(=O)N2CCC[C@H]2C(=O)N[C@@H](Cc2ccc(Cl)cc2)C(=O)O)C[C@@H]2CCCC[C@@H]21

Assays:
[1] = molecular target: T1, rat APJ receptor; test: cell-based or functional assay
[2] = molecular target: T2, human APJ receptor; test: cell-based or functional assay

Binder	EC50 Rat APJ Receptor (GTPγS assay) [1] [nM]	EC50 Human APJ Receptor (GTPγS assay) [2] [nM]
Tridecanoyl-[γGlu][AEEA][AEEA][dQ]R[αMeP][hArg][BLeu]SHKG[Pip′][Nle][Phe(4-Cl)]-OH [Apelin polypeptide SEQ ID NO: 501]	68.2	10.9
B1	35.9	10.3
Tridecanoyl-[γGlu][AEEA][AEEA][dQ]R[Pip′][NMeR][Cha]SHKG[Oic][Nle][Aib][Phe(4-Cl)]-OH [Apelin polypeptide SEQ ID NO: 517]	3.22	0.62
Tridecanoyl-[γGlu][AEEA][AEEA][dQ]R[αMeP][Nle][BLeu]SHKG[Oic][Nle][αMeP][Phe(4-Cl)]-OH [Apelin polypeptide SEQ ID NO: 523]	71.9	25.6
B2	56.1	9.18
B3	23.1	1.39
Tridecanoyl-[γGlu][AEEA][AEEA][dQ]R[Pip′][hArg][BLeu]SHKG[Oic][Nle][Aib][Phe(4-Cl)]-OH [Apelin polypeptide SEQ ID NO: 521]	3.21	1.03
B4	2.12	0.16
B5	2.02	0.557
Tridecanoyl-[AC4Abu][AEEA][AEEA]QR[αMeP][hArg][BLeu]SHKG[Oic][Nle]P[Phe(4-Cl)]-OH [Apelin polypeptide SEQ ID NO: 392]	0.856	0.584
Tridecanoyl-[γGlu][AEEA][AEEA][dQ]R[αMeP][hArg][BLeu]SHKG[Oic][Nle][β3hP][Phe(4-Cl)]-OH [Apelin polypeptide SEQ ID NO: 556]	69.1	18
Tridecanoyl-[γGlu][AEEA][AEEA][dQ]R[β3hP][hArg][BLeu]SHKG[Oic][Nle][Aib][Phe(4-Cl)]-OH [Apelin polypeptide SEQ ID NO: 522]	6.77	0.523
B6	1.9	1.11
Tridecanoyl-[γGlu][AEEA][AEEA]QR[Pip′][NMeR][Cha]SHKG[Oic][Nle]P[Phe(4-Cl)]-OH [Apelin polypeptide SEQ ID NO: 440]	4.26	3.48
Tridecanoyl-[γGlu][AEEA][AEEA][dQ]R[αMeP][hArg][BLeu]SHKG[Oic][Nle][αMeP][Phe(4-Cl)]-OH [Apelin polypeptide SEQ ID NO: 502]	4.81	0.456
B7	2.01	2.23
Tridecanoyl-[γGlu][AEEA][AEEA][dQ]R[αMeP][hArg][BLeu]SHKG[Oic][Nle][Phe(4-Cl)]-OH [Apelin polypeptide SEQ ID NO: 519]	44.7	9.74
Tridecanoyl-[γGlu][AEEA][AEEA][dQ]R[αMeP][hArg][BLeu]SHKG[Oic][Nle][Aib][Phe(4-Cl)]-OH [Apelin polypeptide SEQ ID NO: 505]	0.516	0.0707
B8	1.14	0.977
Tridecanoyl-[γGlu][AEEA][AEEA]QR[NMeR][BLeu]SHKG[Oic][Nle]P[Phe(4-Cl)]-OH [Apelin polypeptide SEQ ID NO: 447]	14.8	9.66
